In general, EC50 refers to the midpoint of the concentration-response curve.

Like-named read-outs stand apart in the source and are kept apart here.

In assay [1] the target is T1, human CD3 on the cell surface (Jurkat cells, expanded human T cells, Jurkat-Lucia NFAT cells, human PBMC) (human, UniProt P07766 23-207; P04234 22-171; P09693 23-182).
T1 construct: whole, on cells; Endogenous CD3 within the TCR-CD3 complex on cells (also zeta chains and TCR); the cell type is named under assay
Put plainly: FACS, Jurkat cells. The method, then:
Suspension cells Jurkat cells (purchased from Cell bank of Chinese Academy of Sciences) were scale-up cultured in T-175 cell culture flasks to the logarithmic growth phase, the supernatant of the medium was discarded by centrifugation, and the cell pellet was washed 2 times with PBS. After counting the cells in the previous step, the cell pellet was resuspended with [PBS+2% (w/v) FBS] blocking solution to 4×10⁶ cells/ml, and added to a 96-well FACS reaction plate at 50 μl/well, the supernatant was removed by centrifugation, detection antibodies (initial concentration of […], gradient dilution at 1:5) and an IgG negative control were added at 100 μl/well, the cells were uniformly mixed, and incubated on ice for 1 h. The cells were centrifuged and washed 3 times with a PBS buffer. […] The cells were centrifuged and washed 5 times with a PBS buffer, and FACS (FACS Canto II, purchased from BD Company) was used for detection and result analysis. Data analysis was performed by software (CellQuest) to obtain the mean fluorescence intensity (MFI) of the cells. And then software (GraphPad Prism8) was used for analysis, data fitting, and EC50 value calculation.
(In general: In flow cytometry, cells or beads pass a laser one at a time.)

Assay [2] concerns the target T1, human CD3 on the cell surface (Jurkat …). Put plainly: FACS, Jurkat cells. The method, then: (§1) The binding of the chimeric antibodies to CD3 on the cell surface was analyzed by detecting the binding of the antibodies to Jurkat cells and human T cells. Suspension cells Jurkat cells were scale-up cultured in T-75 cell culture flasks to the logarithmic growth phase, the supernatant of the medium was discarded by centrifugation, and the cell pellet was washed 2 times with PBS for later use. The expanded human T cells were washed 2 times with PBS for later use. After counting the cells in the previous step, the cell pellet was resuspended with [PBS+2% (w/w) BSA] blocking solution to 4×10⁶ cells/ml, and added to a 96-well FACS reaction plate at 50 μl/well, and then the chimeric antibody to be tested was added at 50 μl/well, and incubated at 4° C. for 1 h. The cells were centrifuged and washed 3 times with a PBS buffer. […] The cells were centrifuged and washed 5 times with PBS, and FACS (FACS Canto™, purchased from BD Company) was used for detection and result analysis. Data analysis was performed by software (CellQuest) to obtain the mean fluorescence […] (MFI) of the cells. And then software (GraphPad Prism8) was used for analysis, data fitting, and EC50 value calculation. The same method was used to simultaneously detect the binding of the chimeric antibodies to endogenous CD3 negative cells MOLT4 cells.
This is another data set of the same source.

Assay [3] shares this target. The experiment in a line: FACS, expanded human T cells.
Assay [4] has the same target. The experiment in a line: FACS, expanded human T cells. The method, then: as §1
The source holds these as a separate data set.

Assay [5] deals with T2, cynomolgus monkey CD3 on the surface of expanded monkey T cells (cynomolgus monkey, UniProt Q95LI5 22-198; Q95LI8 22-171; Q95LI7 23-181).
T2 construct: whole, on cells; Endogenous CD3 within the TCR-CD3 complex on T cells expanded from cynomolgus monkey PBMC
T2 sequence (Q95LI5 22-198, chain 1 of 3): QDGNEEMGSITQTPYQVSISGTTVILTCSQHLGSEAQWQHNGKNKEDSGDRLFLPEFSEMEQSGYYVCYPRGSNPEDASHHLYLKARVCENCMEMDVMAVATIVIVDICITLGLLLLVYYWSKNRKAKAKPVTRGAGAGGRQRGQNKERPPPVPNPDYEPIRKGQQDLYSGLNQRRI
T2 sequence (Q95LI8 22-171, chain 2 of 3): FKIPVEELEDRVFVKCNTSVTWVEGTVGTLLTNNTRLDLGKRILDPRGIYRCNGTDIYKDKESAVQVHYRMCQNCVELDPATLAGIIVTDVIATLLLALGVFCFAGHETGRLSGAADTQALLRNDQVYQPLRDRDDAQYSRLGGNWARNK
T2 sequence (Q95LI7 23-181, chain 3 of 3): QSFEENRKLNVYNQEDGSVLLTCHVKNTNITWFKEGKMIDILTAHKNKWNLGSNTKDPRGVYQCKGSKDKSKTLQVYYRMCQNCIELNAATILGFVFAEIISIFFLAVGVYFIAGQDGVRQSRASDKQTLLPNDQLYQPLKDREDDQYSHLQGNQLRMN
The experiment in a line: FACS, expanded monkey T cells.

Assay [6] deals with T2, cynomolgus monkey CD3 on the surface of …. Put plainly: FACS, expanded monkey T cells. On the procedure:
as §1
FACS detection and data analysis were performed on the cryopreserved monkey T cells of Example 2.4 according to the method in Example 5.1.
This is another data set of the same source.

T1 sequence (P07766 23-207, chain 1 of 3): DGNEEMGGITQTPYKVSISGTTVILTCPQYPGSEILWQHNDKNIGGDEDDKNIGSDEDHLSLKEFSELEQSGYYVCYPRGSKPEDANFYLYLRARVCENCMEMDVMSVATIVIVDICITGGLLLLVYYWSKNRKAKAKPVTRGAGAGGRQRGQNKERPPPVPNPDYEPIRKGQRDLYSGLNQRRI
T1 sequence (P04234 22-171, chain 2 of 3): as the sequence (Q95LI8 22-171, chain 2 of 3) above, with V5I, K15N, V20I, T32S, N33D, N34I, A64T, N74S, L83V, R141H counted along it
T1 sequence (P09693 23-182, chain 3 of 3): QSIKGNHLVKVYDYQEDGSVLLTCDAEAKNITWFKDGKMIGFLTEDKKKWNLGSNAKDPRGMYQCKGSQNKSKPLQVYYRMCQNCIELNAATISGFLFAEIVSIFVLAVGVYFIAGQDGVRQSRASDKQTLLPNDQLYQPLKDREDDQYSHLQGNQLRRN

B1: SP34-hIgG1 (antibody)
heavy: not shown
light: QAVVTQESALTTSPGETVTLTCRSSTGAVTTSNYANWVQEKPDHLFTGLIGGTNKRAPGVPARFSGSLIGDKAALTITGAQTEDEAIYFCALWYSNLWVFGGGTKLTVLRTVAAPSVFIFPPSDEQLKSGTASVVCLLNNFYPREAKVQWKVDNALQSGNSQESVTEQDSKDSTYSLSSTLTLSKADYEKHKVYACEVTHQGLSSPVTKSFNRGEC
notes: Positive control
Take B1: the EC50 is 0.45 nM in assay [1]; 0.13 nM in assay [2]; 2.54 nM in assay [3]; 0.43 nM in assay [4]; 0.49 nM in assay [5]; 0.27 nM in assay [6]. Further, the MFI_Max turned out to be 7020 MFI in assay [2], 43100 MFI in assay [4] and 64700 MFI in assay [6].

The values above are taken from patent US20250136687A1 (SHANDONG SIMCERE BIOPHARMACEUTICAL, published 2025).
